A word on the stoichiometry N: it is a count of units in the complex or per binding partner.

The text below walks through data of publication PMC11655906.

“And” between values parts separate entries of the source, which are not always exact repeats. Identical values can stand only once.

The target in the assay is mouse Flower isoform 4 with C-terminal mTFP (mFwe4-mTFP) (mouse). In words: native gel or EMSA; native PAGE (4-16% Bis-Tris, G-250 additive) of lysates of transfected Fwe KO mouse CTLs (modified RIPA: 50 mM Tris pH 7.5, 50 mM NaCl, 1% Triton-X-100, 1 mM EDTA), western blot with anti-DsRed recognising mTFP; oligomeric state read from band size. In general terms: A gel shift assay detects complexes by their altered migration in electrophoresis.

Sequence of mouse Flower isoform 4 with C-terminal mTFP (mFwe4-mTFP) (natural protein) (Q8BG21 whole entry, canonical isoform): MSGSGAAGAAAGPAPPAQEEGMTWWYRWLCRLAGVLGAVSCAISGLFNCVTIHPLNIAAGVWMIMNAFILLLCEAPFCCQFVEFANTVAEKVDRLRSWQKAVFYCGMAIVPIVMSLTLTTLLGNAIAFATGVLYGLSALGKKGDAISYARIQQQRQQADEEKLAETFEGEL

Take “mouse Flower isoform 4 with C-terminal mTFP (mFwe4-mTFP) (natural protein)”: the stoichiometry N is 4 and 6.
